Earlier results in PMC10743670.
Where two headings read alike, the source gives them in different places.

What was measured:
Asp97 = Asp97 (UniProt position 97, VFRYIDWLLTV); conditions: ground state
Asp85 [1] = biological target: Asp85 (UniProt position 85, EIRYIDWLVTT); conditions: ground state
Asp85 [2] = biological target: Asp85 (UniProt position 98, WAQYADWLFTT); conditions: ground state of the R82Q mutant
Asp85 [3] = biological target: T1, Asp85 (UniProt position 98, WARYADWLFTT); conditions: ground (unphotolysed) state of bacteriorhodopsin; purple-to-blue transition
Asp85 [4] = biological target: T1, Asp85; experiment: other (described only as 'a titration of bacteriorhodopsin'); conditions: bacteriorhodopsin with the proton release group deprotonated

Proteorhodopsin (PR) (uncultured marine gamma-proteobacterium (printed as 'marine γ-proteobacteria'))
pKa (Asp97): ∼7.0

Exiguobacterium sibiricum rhodopsin (ESR) (Exiguobacterium sibiricum)
pKa (Asp85 [1]): <2

Bacteriorhodopsin R82Q mutant (Halobacterium salinarum (printed as Halobacterium halobium); R82Q)
pKa (Asp85 [2]): ≈7.5

Exiguobacterium sibiricum rhodopsin (ESR) H57M mutant (Exiguobacterium sibiricum; H57M)
pKa (Asp85 [1]): 6.3

Bacteriorhodopsin (bR) (Halobacterium salinarum (printed as Halobacterium halobium))
pKa (Asp85 [3]): ≈2.7
pKa (Asp85 [4]): ≈7.5
